Molecular target: T1, MBP-SelU (tRNA 2-selenouridine synthase) (Escherichia coli, UniProt P33667 1-364)
T1 sequence: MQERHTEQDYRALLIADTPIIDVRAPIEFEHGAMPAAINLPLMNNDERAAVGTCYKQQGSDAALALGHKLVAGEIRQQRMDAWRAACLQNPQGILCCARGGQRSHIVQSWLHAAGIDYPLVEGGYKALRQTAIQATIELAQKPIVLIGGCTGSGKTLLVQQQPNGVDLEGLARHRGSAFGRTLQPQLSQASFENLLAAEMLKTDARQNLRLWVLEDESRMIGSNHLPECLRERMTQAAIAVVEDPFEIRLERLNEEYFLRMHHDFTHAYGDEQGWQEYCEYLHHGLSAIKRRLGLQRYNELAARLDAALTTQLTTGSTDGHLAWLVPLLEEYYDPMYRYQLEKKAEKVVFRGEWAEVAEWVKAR
Assay: MST (initial fluorescence); 10 mM Mg2+; MST: 2x assay buffer 20 mM Tricine pH 7.2, 20 mM MgCl2, 0.1% Tween-20 mixed with RNA (about 10 mM Tricine, 10 mM MgCl2, 0.05% Tween-20 final if 1:1); Cy3-RNA 50-75 nM; 30 min at room temperature, measured at 22 C
Settings: protein: recombinant, tags: N-terminal MBP (42 kDa, pMAL-c5x), label: 5'-Cy3, hairpin

Row | Binder | Kd (7-nt loop CUUUUAA) | Kd (7-nt loop)
1 | GUUGACUUUUAAUCAAC (structured_RNA) [Cy3-U(34)-RNALys] | 25.5 ± 1.8 µM | 
2 | GUUGACUUUUAAUCAAC (structured_RNA, 2-thiouridine (S2U) at nt 8 (tRNA position 34)) [Cy3-S2U(34)-RNALys] |  | 22.4 ± 1.6 µM
3 | GUUGACUUUUAAUCAAC (structured_RNA, S-geranyl-2-thiouridine (geS2U) at nt 8 (tRNA position 34)) [Cy3-geS2U(34)-RNALys] |  | 3.95 ± 0.4 µM
4 | GUUGACUUUUAAUCAAC (structured_RNA, 2-selenouridine (Se2U) at nt 8 (tRNA position 34)) [Cy3-Se2U(34)-RNALys] |  | 27.1 ± 1.5 µM

From article PMC9105526, “Escherichia coli tRNA 2-Selenouridine Synthase (SelU): Elucidation of Substrate Specificity to Understand the Role of S-Geranyl-tRNA in the Conversion of 2-Thio- into 2-Selenouridines in Bacterial tRN”
